In the RNAGym collection of RNA variant scans (doi:10.1073/pnas.2313332121):

B1: TPR t1 (parent)
chain: GACCAAUCUGCCCUCAGAGCUCGAGAACAUCUUCGGAUGCAGAGGAGGCAGGCUUCGGUGGCGCGAUAGCGCCAACGUCCUCAACCUCCAAUGCAUCCCACCACAUGAUGAUGCCUGAAGAGCCUUGGUUUUUUG

Variants of: B1
Assay: polymerase ribozyme fitness, log enrichment relative to wild type (log ratio); higher = more active; in vitro selection for triplet polymerase activity
Procedure, shortened: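 Mutant libraries of each subunit of a heterodimeric triplet polymerase ribozyme were built by PCR and transcribed. Each library went through one round of in vitro selection in triplicate: annealing with biotinylated primer, partner subunit and triplets, frozen incubation at −7 °C, gel excision of extended constructs, streptavidin-bead capture and RT-PCR. Input and output libraries were Illumina-sequenced; only genotypes with ≥10 input reads and ≥1 read per output were kept. Fitness is log2(genotype enrichment/wild-type enrichment), using inverse-variance-weighted replicate averages.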

Variant | polymerase ribozyme fitness (log ratio)
GACCAAUCUGCCCUCAAAGUUCGAGAACAUCUUCGGAUGCAGAGGAGGCAGGCUUCGGUGGCGCGAUAGCGCCAACGUCCUCAACCUCCAAUGCAUCCCACCACAUGAUGAUGCCUGAAGAGCCUUGGUUUUUUG | -3.63
GACCAAUCUGCCCUCAAAGGUCGAGAACAUCUUCGGAUGCAGAGGAGGCAGGCUUCGGUGGCGCGAUAGCGCCAACGUCCUCAACCUCCAAUGCAUCCCACCACAUGAUGAUGCCUGAAGAGCCUUGGUUUUUUG | -4.82
GACCAAUCUGCCCUCACCGCUCGAGAACAUCUUCGGAUGCAGAGGAGGCAGGCUUCGGUGGCGCGAUAGCGCCAACGUCCUCAACCUCCAAUGCAUCCCACCACAUGAUGAUGCCUGAAGAGCCUUGGUUUUUUG | -4.12
GACCAAUCUGCCCUCACAGCUCGAGAACAUCUUCGGAUGCAGAGGAGGCAGGCUUCGGUGGCGCGAUAGCGCCAACGUCCUCAACCUCCACUGCAUCCCACCACAUGAUGAUGCCUGAAGAGCCUUGGUUUUUUG | -4.65
GACCAAUCUGCCCUCAAAGCUCGAGAACAUCUUCGGAUGCAGAGGAGGCAGGCUUCGGUGGCACGAUAGCGCCAACGUCCUUAACCUCCAAUGCAUCCCACCACAUGAUGAUGCCUGAAGAGCCUUGGUUUUUUG | -5.43
GACCAAUCUGCCCUCAAAGCUCGAGAACAUCUUCGGAUGCAGAGGAGGCAGGCUUCGGUGGCGCGAUAGCGCCAACGUCCUCAACCUCCAAUUCAUCCCACCACAUGAUGAUGCCUGAAGAGCCUUGGUUUUUUG | -4.76
GACCAAUCUGCCCUCAAAGCUCGAGAACAUCUUCGGAAGCAGAGGAGGCAGGCUUCGGGGGCGCGAUAGCGCCAACGUCCUCAACCUCCAAUGCAUCCCACCACAUGAUGAUGCUUUAAGAGCCUUGGUUUUUUG | -3.04
GACCAAUCUGCCCUCACAGCUCGAGAACAUCUUCGGAUGCGGAGGAGGCAGGCUUCGGUGGCGCGAUAGCGCCAACGUCCUCAACCUCCAUUGCAUCCCACCACAUGAUGAUGCCUGAAGAGCCUUGGUUUUUUG | -4.31
GACCAAUCUGCCCUCAAAGCUCGAGAACAUCUUCGGAUGCAGAGGAGUCAGGCUUCCGUAGCGCGAUAGCGCCAACGUCCUCAACCUCCAAUGCAUCCCACCACAUGAUGAUGCCUGAAGAGCCUUGGUUUUUUG | -2.98
GACCAAUCUGCCCUCAAAGCACGAGAACAUCUUCGGAUGCAGACGCGGCAGGCUUCGGUGGCGCGAUAGCGCGAACGUCCUCAACCUCCAAUGCAUCCCACCACAUGAUGAUGCCUGAAGAGCCUUGGUUUUUUG | -5.53
GACCAAUCUGCCCUCAAAGCUCGAGAACAUCUUCGGAUGCAGAGGAGGCAGGCUUAGGUGGCGCGAUAGCGCCAACGUCCUCAACCUCCAAUGCAUCCCACCACAUGAUGAUGCCUGAAGAGCCUUGGUUUUUUG | -2.66
GACCAAUCUGCCCUCAAAGCUCGAGAACAUCUUCGGAUGCAGAGGAAGCAGGCUUCGGUGGCGCGAUAGCGCCAACGUCCUCAACCUCCAAUGCAUCCCACCACAUGAUGUUGCCUGAAGAGCCUUGGUUUUUUG | -5.85
GACCAAUCUGCCCUCAAAGCUCGAGAACAUCUUCGGAUGUAGAGGAGGCAGGCUUCGGUAGCGCGAUAGCGCCAACGUGCUCAACCUCCAAUGCAUCCCACCACAUGAUGAUGCCUGAAGAGCCUUGGUUUUUUG | -6.54
GACCAAUCUGCCCUCAAAGCUCGAGAACAUCUUCGGAUGCAGAGGAGGCAGGCUUCGGUGGCGCGAUAGCGCCAACGUCCUCAACCUCCAAUGGAUCCCACCACAUGAUGAUGCCUGAAGAGCCUUGGUUUUUUG | -4.81
GACCAAUCUGCCCUCAAAGCUCGAGAACAUCUUCGGAUGCAGUGGAGGCAGGCUUCGGUGGCGCGAUAGCGCCAACGUCCUCAACCUCCAAUGCAUCCCACCACAUGAUGAUGCCUGAAAAGCCUUGGUUUUUUG | -3.38
GACCAAUCUGCCCUCACAGCUCGAGAACAUCUUCGGUUGCAGAGGAGGCAGGCGUCGGUGGCGCGAUAGCGCCAACGUCCUCAACCUCCAAUGCAUCCCACCACAUGAUGACGCCUGAAGAGCCUUGGUUUUUUG | -3.41
GACCAAUCUGCCCUCAAAGCUCGAGAACAUCUUCGGAUGCAGAGGAGGCAGGCUUCCGUGGCGCGAUAGCGCCAACGUCCUCAACCUCCAAUGCAUCCCACCACAUGAUGAUGCCUGAAGAGCCUUGGUUUUUUG | -2.86
GACCAAUCUGCCCUCAAAGCUCGAGAACAUCUUCGGAUGCAGAGGAGGCAGGCUUCGGUGGCCCGAUAGCGCCAACGUCCUCAACCUCCAAUGCAUCCCACCACAUGAAGAUGCAUGAAGAGCCUUGGUUUUUUG | -6.25
GACCAAUCUGCCCUCAAAGCUCGAGAACAUCUUCGGAUGCAGAGGAGGCAGGCUUCGGUGGCGCGAUAGCGCCAACGUCCUCAACCUCCAAUGCAUCCCACCACAUGAUGAUGCCUGAAGAGCCUUGCUUUUUUG | -5.29
GACCAAUCUGCCCUCAAAGAUCGAGAACAUGUUCGUAUGCAGAGGCGGCAGGCUUCGGUGGCGCGAUAGCGCCAACGUCCUCAACCUCCAAUGCAUCCCACCACAUGAUGAUGCCUGAAGAGCAUUGGUUUUUUG | -7.12
GACCAAUCUGCCCUCAAAGCUCGAGAACAUCUUCGGAUGCAGAGGAGGCAGGCUUCGGUGGCGCGAUAGCAUCAACGUCCUCAACCUCCAAUGGAUCCCACCACAUGAUGAUGCCUGAAGAGGCUUGGUUUUUUG | -5.54
